Results from US8722622B2, “FGF21 conjugates and anti-diabetic uses thereof” (COVX Technologies Ireland, Limited, priority 2010, dated 2014).
Residue numbers refer to the chain shown, from its start. Names may count otherwise.

B1: Ab-L1-FGF21ΔH-H125C: FGF21ΔH-H125C combined with L1 at H125C and conjugated with h38C2 (conjugate, listed as Homo sapiens)
chain: PIPDSSPLLQFGGQVRQRYLYTDDAQQTEAHLEIREDGTVGGAADQSPESLLQLKALKPGVIQILGVKTSRFLCQRPDGALYGSLHFDPEACSFRELLLEDGYNVYQSEAHGLPLHLPGNKSPHRDPCPRGPARFLPLPGLPPALPEPPGILAPQPPDVGSSDPLSMVGPSQGRSPSYAS
modifications: conjugated via L1 linker to h38C2 antibody
B2: FGF21ΔH-D79C: FGF21 cysteine mutant, SEQ ID NO:13 (protein, listed as Homo sapiens)
chain: B1 chain with D78C, C128A

What was measured:
[1] = Differential scanning calorimetry (DSC); assay type: physicochemical; conditions: temperature-induced unfolding
Method: Thermal stability of the two candidates was investigated using DSC by measuring midpoint of transition (Tm) of temperature-induced unfolding. The Tm value of the major unfolding transition for h38C2 was 73.5° C.

[2] = Intrinsic tryptophan fluorescence thermal unfolding; assay type: physicochemical
Source text: Thermal stability of the two candidates was also investigated using intrinsic protein tryptophan fluorescence by measuring midpoint of transition (Tm-FL) of temperature-induced unfolding. This assay monitors changes in tertiary structure semi-quantitatively upon unfolding induced by high temperature.

ob/ob mice = assay: Mouse efficacy in ob/ob mice (OGTT, body weight, liver, gene expression); assay type: in vivo; conditions: ob/ob mice; for mean glucose AUC % during OGTT: single dose 10 mg/ml as printed (FIG. 6B)
Method: The efficacy of FGF21 antibodies conjugates was evaluated in two murine obese insulin resistant models—ob/ob mice and high-fat diet-induced obese mice. For both models, male mice (6-8 weeks of age for ob/ob, 12-14 weeks of age for DIO with high-fat diet initiated at 6 weeks of age) were housed 2-4/cage and FGF21 antibody conjugates were administered by SC injection. Body weight was measured daily in the morning. Glucose tolerance was assessed by oral glucose tolerance test. Briefly, mice were fasted for 4-5 hrs in the morning of the day of testing. A basal blood sample was obtained and blood glucose levels were determined using a portable glucometer. Following basal sample, glucose was administered by oral gavage, and blood samples were drawn from 15 to 120 mins thereafter.
For […] expression, frozen visceral WAT samples collected from the in vivo efficacy studies were homogenized. Total RNA was extracted from the tissue homogenates, and Glut1 and GAPDH mRNA expression was measured using a Quantitect Probe RT-PCR kit and running a quantitative real time PCR reaction in a Taqman machine (Applied Biosystems). The effect of treatment was determined by a fold change in Glut1 mRNA levels normalized by the GAPDH mRNA levels from each sample.

[3] = system: Glut1 mRNA expression in differentiated 3T3-L1 adipocytes; assay: Glut1 Taqman assay; assay type: cell-based; conditions: differentiated 3T3-L1 adipocytes, 6 hrs; read-out: EC50 in Glut1 Taqman assay
Method: Differentiated 3T3-L1 adipocytes were used to measure the Glut1 mRNA expression by qPCR method. Overnight serum starved day 10-14 differentiated 3T3-L1 adipocytes were treated with compounds for 6 hrs. Total RNA was extracted from these cells, and Glut1 and GAPDH mRNA expression was measured using a Quantitect Probe RT-PCR kit and running a quantitative real time PCR reaction in a Taqman machine (Applied Biosystems®). The bioactivity of the compounds was determined by a fold change in Glut1 mRNA levels normalized by the GAPDH mRNA levels from each sample. EC50 values as measurements of the potency of the compounds were obtained from the dose response curves in the assay.
3T3-L1 adipocytes were seeded at day 8 in 24-well tissue culture plates (Falcon®, Cat#353047), and incubated in DMEM complete medium (10% FBS, 2 mM L-glutamine, 1% P/S) at 37° C., 5% CO2. […] The medium was aspirated, and then RNA extracted from the cells using the RNeasy mini Kit according to the manufacturer's instructions. RNA was measured at A260 nm using the Spectramax® Plus spectrophotometer.

[4] = set-up: species or system Swiss-Webster mice; conditions: mouse, in vivo, sc
Method: The PK of FGF21 antibody conjugates were examined in mice after IV or SC administration. […] Antibody conjugates concentrations in serum were determined using an ELISA which captured the FGF21 portion of the antibody conjugates through a monoclonal anti-hFGF21 antibody bound to a 96-well plate. FGF21 antibody conjugates bound to the plate were detected through an anti-hFc monoclonal antibody, and concentrations were determined using a standard curve of the PK dosing solution diluted into serum-containing assay buffer. SC bioavailability was calculated as the ratio of the area-under the curve (AUC) of the SC serum concentration profile divided by the AUC of the IV serum concentration profile.

[5] = assay type: physicochemical
Method: FGF21ΔH-D79C mutant protein was produced in E. coli and purified as described above. FGF21ΔH-D79C was expressed from 1 L of culture. A 150 mg inclusion body was obtained and 85 mg purified protein was obtained, representing a 60% yield. To test the stability of FGF21ΔH-D79C as well as FGF21ΔH (SEQ ID NO:2), freshly thawed samples were kept at 4° C. over seven days, and examined for their integrity by RP-HPLC, SEC_HPLC, Ellman assay and SDS-PAGE on day 0, 3 and 7. […] PBS (pH7.4) and 20 mM Tris-HCl 50 mM NaCl (pH7.5) made no significant difference of stability of FGF21ΔH-D79C.
It is possible that the solubility of FGF21ΔH-D79C may be reduced at pH6.0. The stability of FGF21ΔH-D79C was examined upon multiple freeze/thaw cycles. The proteins were repeated to freeze (−80 C) and thaw (4° C.) 9 times.

Molecule | Tm of the major unfolding transition (DSC) [1] | Tm-FL of the major unfolding transition [2] | body weight gain (ob/ob mice) | glucose tolerance (ob/ob mice) | Mean Glucose AUC (% of vehicle control) during OGTT (ob/ob mice; single SC dose 1 mg/kg (FIGS. 4A, 4B)) | Mean Glucose AUC (% of vehicle control) during OGTT (ob/ob mice; single SC dose 3 mg/kg (FIGS. 4A, 4B)) | Cumulative body weight change, mean body weight (ob/ob mice; single dose 10 mg/kg (FIG. 6A)) | mean glucose AUC % during OGTT (ob/ob mice) | EC50 [3] | SC bioavailability [4] | stability upon freeze/thaw cycles [5] | fraction oxidized at pH 6.0 ([5]; 4° C., three-day incubation) | stability at neutral pH 7.4 ([5]; pH 7.4) | Cumulative body weight change, mean body weight (ob/ob mice; single dose 2 mg/kg (FIG. 6A))
h38C2: humanized aldolase catalytic antibody h38C2 IgG1, SEQ ID NOS:25 and 26 | 73.5 °C | approximately 74.1 °C |  |  |  |  |  |  |  |  |  |  |  | 
B1 | 79 °C | ~79.7 °C | reduce body weight gain | improve glucose tolerance | 87 % of vehicle control | 66 % of vehicle control | 0.8 g | 51% | 3.2 nM | 67% |  |  |  | 
B2 |  |  |  |  |  |  |  | 54% | 2.1 nM |  | Neither sample showed any difference | more than half | stable | 2.1 g
